# Results as given in patent US20230257452A1 (GTINVENT, published 2023).
# Where no end group is shown, it is not given here. The star is where a group is joined. Biotin = O=C1N[C@H]2[C@H](CS[C@H]2CCCCC(=O)*)N1
# T1: N biotin 341-353 tau peptide (human)
# T1 peptide: Biotin-SEKLDFKDRVQSK
# B1: S1D12 scAb (scFv)
# scFv: QVQLQESGPSLVKPSQTLSLTCTVSGFSLNNNAVGWVRQAPGKVPESLVGCSSDGTCYYNSALKSRLDITRDTSKNQISLSLSSVTTDDAAVYYCTRGHYSIYGYDYLGTIDYWGPGLLVTVSSEGKSSGASGESKVDDQAVLTQPSSVSGSLGQRVSITCSGSSSNVGGGNSVGWYQHLPGSGLKTIIYDTNSRPSGVPDRFSGSRSGNTATLTINSLQAEDEGDYYCVTGDSTTHDDLVGSGTRLTVLG
# notes: not shown: human C kappa domain and hexa-His tag of the scAb format
# B2: CB3 scAb (scFv)
# scFv: QVQLQESGPSLVKPSQTLSLTCTVSGFSLSSVAVNWVRQAPGKVPEWLGGIISNGGTGYNPALKSRLSITRDTSKSQVSLALTHVTTEDTAVYYCGRGVEWEGSMDYLGPGLLVTVSSEGKSSGSGSETKVDDQSVLTQPSSVSGFLGQRVTITCSGSSSNVGAGSYVGWYQQVPGSGLRILIYGATKRASGLPDRFSGSRSGNTATLTISSLQAEDEADYYCVSYQTDFTLVFGSGTRLTVLG
# notes: as for B1
# B3: S1G2 scAb (scFv)
# scFv: QVQLQESGPSLVKPSQTLSLTCTVSGFSLTSNSVGWVRQAPGKAPEWVAGIDTDGEEGYNPALNSRLSITRDTSKSQVSLSLSSVTSEDTAVYYCGRSYRADGLAYGYVQAIDYWGPGLLVTVSSEGKSSGASGESKVDDQAVVTQPSSVSGSLGQRVSITCSGSFIGISSVGWFQQLPGSGLRTIIVASDGRPSGVPDRFSMSKSGNTATLTISSLQAEDEADYFCGSSDRTPYTGVFGSGTRLTVLG
# notes: as for B1
# B4: CA7 scAb (scFv, V domains shown)
# VH: RVRLQGSGPSLVKPSQTLSLTCTVSGFSFDSYYVGWVRQAPGKALEWLGNIYSTGRAFYNPALKSRLSITRDTSKSQVSLSVSSVTIEDTALYYCVRGSYYHGGGNGMVDFFDYWSPGLLVTVSS
# VL: QVVRTQPSSVSGSLGQRVSITCSGSSSNVGYGNYVGWFQQVPGSAPKLLIYAATSRASGVPDRFSGSRSGNTATLTIDSLQAEDEADYYCSSYQRGNTGVFGSGTRLTVLG
# notes: tested as scAb (VH-linker-VL-HuCk-His in one chain)
# What was measured:
# [1] = biological target: Tau 337-368 (human); assay: ELISA, antigen coated, scAb titrated; panel title 337-368
# From the text: (§1) The plates were blocked with 2% MPBS and scAb samples added at desired starting concentrations and double diluted across the plate. Binding was detected using anti-Human C Kappa HRP conjugated secondary antibody and the resulting immunoreaction was developed and absorbance values measured as described above.
# [2] = biological target: T1, N biotin 341-353 tau peptide; assay: ELISA, biotinylated peptide on streptavidin, scAb titrated [B]
# Description: Briefly, 5 μg/ml streptavidin (Thermo Fisher) was adsorbed to Nunc 96-well MaxiSorp plates and following incubation at 37° C. for 1 h, the plates were washed as normal and blocked with 2% MPBS. […] Subsequently, test scAbs at starting concentrations of 100-500 nM was added and double diluted across the plate for each peptide and incubated for 1 h at 37° C. Rest of the ELISA was conducted as described above and the plates were read at absorbance 450 nm. Immunoreactivity of the scAb of interest was quantified as the % of scAb was bound for each peptide at a chosen concentration (FIG. 15-20).
# [3] = biological target: T2, full length human tau protein (2N4R, isoform Tau-F, 441 amino acids) (human, UniProt P10636 1-758); assay: ELISA, hT40 coated, scAb titrated
# T2 construct: also called hT40; htau40
# [4] = biological target: T3, dGAE (tau 297-391) (human, UniProt P10636 614-708); assay: tau-tau immunoassay: scAb preincubated with 100 nM dGAE; blocked ligand: plate-bound dGA (1000 nM); bound dGAE detected with E2E8
# T3 construct: also called dGAE95
# Description: The adapted method is as follows: dGA (1000 nM) was adsorbed to a Nunc 96-well MaxiSorp plate and incubated for 1 h at 37° C. Plates were subsequently washed 3 times with PBST which was performed after each 1 h incubation. The plates were blocked with 2% (w/v) dried milk powder in PBS for 1 h at 37° C. […] The secondary antibody used was HRP-conjugated Anti-mouse IgG (1:1000 dilution, Sigma) and incubated at RT for 1 h. The plate was subsequently developed, and readings taken at absorbance 450 nm.
# [5] = biological target: T3, dGAE (tau 297-391); assay: sandwich ELISA, 423 mAb capture, dGAE titrated, scAb at 10 ug/ml as detector [cont) G-I]
# Description: (§2) Following overnight agitation, one third of each sample was kept aside as ‘total’ and the rest was spun down at 16000×g for 30 min and separated into ‘supernatant’ and ‘pellet’. The pellet was then resuspended in half the original volume for further experiments. […] All double dilutions were done in final volumes of 100 μl. This was left to incubate on lab bench for 1 h followed by the addition of test scAbs at 10 μg/ml.
# [6] = biological target: dGA (tau 297-390) (human, UniProt P10636 614-707); assay: ELISA
# From the text: as §1
# [7] = biological target: T4, dGAE aggregates (human, UniProt P10636 614-708, limits assumed); assay: sandwich ELISA, 423 mAb capture, aggregation sample titrated, scAb at 10 ug/ml as detector [cont) G-I]
# T4 construct: 100 µM dGAE aggregated with DTT at 37 °C, 700 rpm, 24 h; also called aggregated dGAE
# Description: as §2
# [8] = biological target: T2, full length human tau protein (2N4R, …); assay: ELISA, hT40 coated, scAb titrated; remark: listed apart in the source
# [9] = biological target: T2, full length human tau protein (2N4R, …); assay: sandwich ELISA, S1D12 mAb capture, hT40 titrated, detection scAb at 10 ug/ml, colourimetric
# Description: (§3) Full length tau (hT40), at 1 μg/ml starting concentration was added to designated wells and double diluted across rest of the plates and left to incubate at R/T for 1 h. A series of detection scAbs with varying epitope recognition properties were added at 10 μg/ml to designated wells (FIG. 22). For colourimetric detection HRP conjugated anti-HuCk secondary antibody was used and the resulting immunoreaction was developed and absorbance at 450 nm measured as described previously. Cut-off point for a positive binding event was an absorbance value of 0.3 following background subtraction. In order to enhance the assay sensitivity, a chemiluminescent detection method was adopted where 50 μL SuperSignal ELISA Femto Substrate (Thermo Scientific) was added to each well following incubation with anti-HuCK HRP antibody and subsequent washing. The luminescence was read using Clariostar Plus microplate reader. A further modification to this protocol was done where various detection scAbs were directly conjugated with HRP and detected using chemiluminescent protocol as before.
# [10] = biological target: T2, full length human tau protein (2N4R, …); assay: sandwich ELISA, S1D12 mAb capture, hT40 titrated, detection scAb, chemiluminescent
# Description: as §3
# [11] = biological target: T5, mouse tau (isoform Tau-A) (mouse, UniProt P10637 2-733); assay: sandwich ELISA on mouse brain homogenates (incl. wild type), S1D12 mAb capture
# T5 construct: endogenous tau in mouse brain homogenate or plasma; also called endogenous mouse tau
# [12] = biological target: T2, full length human tau protein (2N4R, …); assay: ELISA
# From the text: as §1
# [13] = biological target: Tau 1-319 (human, UniProt P10636 1-636); assay: ELISA
# From the text: as §1
# T2 sequence (P10636 other isoform, or with tags, fused parts or gaps limits assumed): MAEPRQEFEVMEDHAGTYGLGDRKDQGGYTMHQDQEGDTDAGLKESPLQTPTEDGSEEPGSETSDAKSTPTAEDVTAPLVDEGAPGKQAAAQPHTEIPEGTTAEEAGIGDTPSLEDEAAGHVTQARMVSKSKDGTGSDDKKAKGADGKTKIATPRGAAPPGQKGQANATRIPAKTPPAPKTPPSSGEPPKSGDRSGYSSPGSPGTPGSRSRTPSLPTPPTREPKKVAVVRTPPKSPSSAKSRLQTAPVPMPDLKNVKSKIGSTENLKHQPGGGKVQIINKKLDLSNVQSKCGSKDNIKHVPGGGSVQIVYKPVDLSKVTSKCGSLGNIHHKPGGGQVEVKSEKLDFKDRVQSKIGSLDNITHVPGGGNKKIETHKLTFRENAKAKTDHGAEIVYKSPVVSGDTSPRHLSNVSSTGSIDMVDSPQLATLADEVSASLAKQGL
# T3 sequence (P10636 614-708 limits assumed): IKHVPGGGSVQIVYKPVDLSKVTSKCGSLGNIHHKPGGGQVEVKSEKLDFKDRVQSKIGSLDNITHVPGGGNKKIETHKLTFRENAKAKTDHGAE
# Sequence of Tau 1-319 (P10636 other isoform, or with tags, fused parts or gaps): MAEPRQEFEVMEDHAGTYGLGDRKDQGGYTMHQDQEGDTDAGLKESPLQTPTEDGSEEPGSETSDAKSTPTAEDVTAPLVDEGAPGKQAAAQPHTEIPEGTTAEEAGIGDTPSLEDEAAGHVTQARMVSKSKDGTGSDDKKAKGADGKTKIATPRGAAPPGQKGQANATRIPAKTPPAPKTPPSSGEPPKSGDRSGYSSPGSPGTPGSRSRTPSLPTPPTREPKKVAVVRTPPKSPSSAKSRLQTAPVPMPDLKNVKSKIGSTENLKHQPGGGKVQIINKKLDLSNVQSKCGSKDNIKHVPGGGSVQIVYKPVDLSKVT
# T4 sequence (P10636 614-708 limits assumed): as the sequence (P10636 614-708 limits assumed) above
# Sequence of Tau 337-368 (human) (chain, as listed by the source): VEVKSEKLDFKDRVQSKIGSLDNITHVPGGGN
# T5 sequence (P10637 other isoform, or with tags, fused parts or gaps limits assumed): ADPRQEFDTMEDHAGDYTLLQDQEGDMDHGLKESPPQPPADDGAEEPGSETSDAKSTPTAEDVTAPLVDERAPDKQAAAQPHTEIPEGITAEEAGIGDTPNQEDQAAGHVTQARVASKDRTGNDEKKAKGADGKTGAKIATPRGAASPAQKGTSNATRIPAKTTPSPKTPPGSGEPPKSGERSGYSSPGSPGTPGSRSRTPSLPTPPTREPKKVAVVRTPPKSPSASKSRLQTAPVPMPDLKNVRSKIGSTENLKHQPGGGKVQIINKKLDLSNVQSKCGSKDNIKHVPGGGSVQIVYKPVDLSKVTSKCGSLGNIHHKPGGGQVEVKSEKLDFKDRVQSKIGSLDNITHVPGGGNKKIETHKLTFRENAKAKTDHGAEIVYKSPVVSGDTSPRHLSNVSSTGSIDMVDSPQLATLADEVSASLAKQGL
# Sequence of dGA (tau 297-390) (P10636 614-707 limits assumed): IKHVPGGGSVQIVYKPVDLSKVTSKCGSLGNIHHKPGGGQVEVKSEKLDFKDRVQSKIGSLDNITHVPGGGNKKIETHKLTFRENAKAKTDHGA
binder,measurement,setting,value
B1,binding result,[1],binds
same,binding result,[2],binds
same,EC50 (read off the curve),[3],~0.9 mg/L
same,B50,[4],80 nM
B2,binding result,[5],binds
same,binding result,[6],binds
same,binding result,[7],binds
same,binding result,[8],binds
B3,LoD (ng/ml) colourimetric detection,[9],2 ng/mL
same,LoD (ng/ml) chemiluminescence detection,[10],0.12 ng/mL
same,binding result,[11],binds
same,B50,[4],65 nM
B4,binding result,[12],binds
same,binding result,[13],binds
